Test results from PMC2731736, “cGMP-dependent protein kinase Iα associates with the antidepressant-sensitive serotonin transporter and dictates rapid modulation of serotonin uptake” (Molecular Brain, 2009).

What was measured:
[1] = target: T1, Recombinant protein kinase Cα (PKCα, human) (human, UniProt P17252 1-672); assay: kinase inhibition assay (Ki from enzyme kinetics); purified recombinant kinases with multiple concentrations of DT-2; saturating peptide substrate …; PKG isoforms activated with 1 μM cGMP; PKC activated with 50 μg/μL phospholipids and 100 ng/mL 12-O-tetradecanoylphorbol-13-acetate; conditions: both partners purified
T1 construct: protein kinase C alpha, human, recombinant; source: bought: Calbiochem

[2] = target: T2, cGMP-dependent protein kinase II (PKGII), recombinant (UniProt Q13237 1-762); assay: as above; conditions: both partners purified
T2 construct: cGMP-dependent protein kinase II; also called cGK2; source: insect cell cultures, Bacmid baculovirus expression system, purified to apparent homogeneity
T2 sequence (looked up): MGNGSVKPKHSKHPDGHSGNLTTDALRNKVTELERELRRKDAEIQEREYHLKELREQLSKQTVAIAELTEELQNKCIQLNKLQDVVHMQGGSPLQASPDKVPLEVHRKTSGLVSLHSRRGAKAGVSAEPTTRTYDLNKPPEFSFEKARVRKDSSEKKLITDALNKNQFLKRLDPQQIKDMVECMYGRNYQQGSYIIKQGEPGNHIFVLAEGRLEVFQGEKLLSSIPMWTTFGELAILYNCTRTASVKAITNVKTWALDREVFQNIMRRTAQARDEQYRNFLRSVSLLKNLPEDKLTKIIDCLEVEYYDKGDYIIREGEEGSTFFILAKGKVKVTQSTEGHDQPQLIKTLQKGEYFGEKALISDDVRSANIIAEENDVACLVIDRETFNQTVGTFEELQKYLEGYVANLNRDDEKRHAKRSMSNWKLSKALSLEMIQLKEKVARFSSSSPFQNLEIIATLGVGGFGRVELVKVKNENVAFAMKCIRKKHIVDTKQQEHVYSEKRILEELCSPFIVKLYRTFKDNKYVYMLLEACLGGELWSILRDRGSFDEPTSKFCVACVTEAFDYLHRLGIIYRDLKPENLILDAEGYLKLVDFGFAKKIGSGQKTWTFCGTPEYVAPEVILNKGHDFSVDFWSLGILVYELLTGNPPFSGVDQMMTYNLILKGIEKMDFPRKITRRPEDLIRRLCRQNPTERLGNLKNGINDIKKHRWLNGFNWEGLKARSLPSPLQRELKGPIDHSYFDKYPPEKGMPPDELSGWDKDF

B1: DT-2 (peptide)
peptide: YGRKKRRQRRRPPLRKKKKKH
notes: also called peptide DT-2
Ki [1]: 0.0266 µM
Ki [2]: 9.1 µM
